Source: PMC6179186, “Novel RNA aptamers targeting gastrointestinal cancer biomarkers CEA, CA50 and CA72-4 with superior affinity and specificity”

Tests used:
[1] = tested on: CA72-4 (cancer antigen 72-4) (human); test: fluorescence titration; settings: 5 mM MgCl2; yeast tRNA competitor 1 ug/ul; RSB-100: 10 mM Tris-HCl pH 7.5, 5 mM MgCl2, 100 mM NaCl, 0.01% NP-40, yeast tRNA 1 ug/ul, room temperature, 10 min; 1 pmol RNA, antigen 0-200 nM
[2] = tested on: CA50 (cancer antigen 50) (human); test: fluorescence titration; settings: 5 mM MgCl2; yeast tRNA competitor 1 ug/ul; RSB-100: 10 mM Tris-HCl pH 7.5, 5 mM MgCl2, 100 mM NaCl, 0.01% NP-40, yeast tRNA 1 ug/ul, room temperature, 10 min; 1 pmol RNA, antigen 0-200 nM
[3] = biological target: CEA (carcinoembryonic antigen) (human, UniProt P06731 35-685); test: fluorescence titration; 5 mM MgCl2; yeast tRNA competitor 1 ug/ul; RSB-100: 10 mM Tris-HCl pH 7.5, 5 mM MgCl2, 100 mM NaCl, 0.01% NP-40, yeast tRNA 1 ug/ul, room temperature, 10 min; 1 pmol RNA, antigen 0-200 nM; settings: protein: commercial; label: Alexa Fluor 488 (ULS); mfold-predicted secondary structure
CEA (carcinoembryonic antigen), sequence (P06731 35-685): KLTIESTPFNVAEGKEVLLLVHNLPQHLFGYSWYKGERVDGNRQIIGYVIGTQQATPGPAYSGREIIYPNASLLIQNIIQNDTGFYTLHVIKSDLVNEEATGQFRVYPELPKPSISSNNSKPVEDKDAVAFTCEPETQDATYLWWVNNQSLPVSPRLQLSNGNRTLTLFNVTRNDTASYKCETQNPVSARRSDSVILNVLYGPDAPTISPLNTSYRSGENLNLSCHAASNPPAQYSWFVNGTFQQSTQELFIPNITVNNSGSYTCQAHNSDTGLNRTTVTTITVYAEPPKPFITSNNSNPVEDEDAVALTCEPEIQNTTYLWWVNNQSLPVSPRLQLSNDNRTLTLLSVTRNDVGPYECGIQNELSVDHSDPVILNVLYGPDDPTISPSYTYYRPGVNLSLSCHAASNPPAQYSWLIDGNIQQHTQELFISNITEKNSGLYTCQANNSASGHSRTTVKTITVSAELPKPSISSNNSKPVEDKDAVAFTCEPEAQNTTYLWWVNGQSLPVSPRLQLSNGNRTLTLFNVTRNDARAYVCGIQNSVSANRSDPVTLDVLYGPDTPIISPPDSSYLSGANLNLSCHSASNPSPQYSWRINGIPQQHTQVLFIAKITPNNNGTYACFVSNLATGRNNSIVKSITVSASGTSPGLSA

Row | Molecule | Kd [1] | Kd [2] | further results
1 | GGGUCGUGUCGGAUCCCCCAAAAAGGAUUGGGGCGUCUGCAUGACCAAGCUUCUAAGGUAACGAU [CA72-4 A02] | 71.2 nM |  | 
2 | GGGUCGUGUCGGAUCCAGCUCGAAAGUGGGCUGGCGAUGUGUCCCGAAGCUUCUAAGGUAACGAU [CA50 A02] |  | 30.7 nM | 
3 | GGGUCGUGUCGGAUCCGUGAGUUUUUCGCGGCGAAGACAAGGCUCGAAGCUUCUAAGGUAACGAU [CA50 A01] |  | 38 nM | 
4 | GGGUCGUGUCGGAUCCUGCGAAGGGGGGCAGAGGUUUGACGCGAGAAAGCUUCUAAGGUAACGAU [CA72-4 A01] | 52.7 nM |  | 
5 | CEA A02 (structured_RNA) RNA: GGGUCGUGUCGGAUCCAACGGCAUGACCUAACCUGGAGGCGCAUCAAAGCUUCUAAGGUAACGAU |  |  | Kd [3]: 156 nM
